Holding throughout (test): cell-based or functional assay
For one assay, the target named is human GLP-1 receptor (human, UniProt P43220 24-463).
A further assay deals with human glucagon receptor (human, UniProt P47871 26-477).
Another assay deals with T1, human GIP receptor (human, UniProt P48546 22-466).
T1 sequence (looked up): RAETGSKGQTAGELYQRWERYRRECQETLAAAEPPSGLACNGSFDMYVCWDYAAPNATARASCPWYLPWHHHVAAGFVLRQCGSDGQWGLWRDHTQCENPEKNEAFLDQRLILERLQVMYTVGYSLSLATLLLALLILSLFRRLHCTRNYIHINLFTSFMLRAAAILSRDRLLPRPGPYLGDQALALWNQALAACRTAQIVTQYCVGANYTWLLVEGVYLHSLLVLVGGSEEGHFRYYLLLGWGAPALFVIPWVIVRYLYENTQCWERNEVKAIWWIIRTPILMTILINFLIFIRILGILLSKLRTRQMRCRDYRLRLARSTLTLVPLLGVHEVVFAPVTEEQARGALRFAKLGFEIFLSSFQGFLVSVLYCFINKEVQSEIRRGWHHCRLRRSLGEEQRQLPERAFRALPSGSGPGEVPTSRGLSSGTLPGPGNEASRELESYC

Residue numbers refer to the chain shown, from its start.

B1: Example 48 (peptide)
peptide: YXEGTXTSDXSIXLDXKAQXEFIXXLIEGGKSSGAPPPS
modifications: Aib2, αMeF6, 4Pal10, αMeL13, Orn16, Aib20, D-Glu24, αMeF25, K17 and K31: K(AEEA2-(γ-Glu)-CO-(CH2)12-CO2H), C-terminal NH2
For B1, the results for the “EC50, cAMP” value with human GLP-1 receptor, in the assay with human glucagon receptor and with human GIP receptor were 1 nM, above 9950 nM and 0.0182 nM, respectively.

B2: Example 44 (peptide)
peptide: B1 peptide
modifications: Aib2, αMeF6, 4Pal10, αMeL13, Orn16, Aib20, D-Glu24, αMeY25, K17 and K31: K(AEEA2-(γ-Glu)-CO-(CH2)12-CO2H), C-terminal NH2
For the molecule B2, the entries for the “EC50, cAMP” value in the assay with human GLP-1 receptor, in the assay with human glucagon receptor and with human GIP receptor were 4.77 nM, above 9950 nM and 0.0637 nM, respectively.

B3: Example 38 (peptide)
peptide: B1 peptide
modifications: Aib2, αMeF(2F)6, 4Pal10, αMeL13, Orn16, Aib20, D-Glu24, αMeY25, K17 and K31: K((εK)-(γ-Glu)-CO-(CH2)12-CO2H), C-terminal NH2
For B3, the “EC50, cAMP” value was 0.225 nM with human GLP-1 receptor, above 9950 nM with human glucagon receptor and 0.0155 nM in the assay with human GIP receptor.

B4: Example 43 (peptide)
peptide: B1 peptide
modifications: Aib2, αMeF(2F)6, 4Pal10, αMeL13, Orn16, Aib20, D-Glu24, αMeY25, K17 and K31: K(AEEA-(γ-Glu)-AEEA-CO-(CH2)12-CO2H), C-terminal NH2
As for B4, the “EC50, cAMP” value was 0.821 nM with human GLP-1 receptor, above 9950 nM with human glucagon receptor and 0.0123 nM with human GIP receptor.

B5: Example 29 (peptide)
peptide: B1 peptide with X10K, K31P
modifications: Aib2, αMeF(2F)6, αMeL13, Orn16, Aib20, D-Glu24, αMeY25, K10 and K17: K(AEEA2-(γ-Glu)-CO-(CH2)14-CH3), C-terminal NH2
For B5, the “EC50, cAMP” value in the assay with human GLP-1 receptor is 0.00468 nM; in the assay with human glucagon receptor, above 9950 nM; in the assay with human GIP receptor, 0.00252 nM. Besides, the “Emax, cAMP” value with human GLP-1 receptor was determined as 100%.

B6: Example 40 (peptide)
peptide: B1 peptide
modifications: Aib2, αMeF(2F)6, 4Pal10, αMeL13, Orn16, Aib20, D-Glu24, αMeY25, K17 and K31: K((εK)-(εK)-(γ-Glu)-CO-(CH2)12-CO2H), C-terminal NH2
As for B6, the “EC50, cAMP” value with human GLP-1 receptor was 0.279 nM; in the assay with human glucagon receptor, above 9950 nM; with human GIP receptor, 0.0116 nM.

B7: Example 30 (peptide)
peptide: B1 peptide
modifications: Aib2, αMeF(2F)6, 4Pal10, αMeL13, Orn16, Aib20, D-Glu24, αMeY25, K17 and K31: K(AEEA3-(γ-Glu)-CO-(CH2)12-CO2H), C-terminal NH2
Take B7: the “EC50, cAMP” value was 2.27 nM with human GLP-1 receptor, above 9950 nM in the assay with human glucagon receptor and 0.0175 nM with human GIP receptor.

B8: Example 52 (peptide)
peptide: B1 peptide
modifications: Aib2, αMeF(2F)6, αMeV10, αMeL13, Orn16, Aib20, D-Glu24, αMeY25, K17 and K31: K(AEEA2-(γ-Glu)-CO-(CH2)12-CO2H), C-terminal NH2
Consider B8, for which the “EC50, cAMP” value in the assay with human GLP-1 receptor is 0.384 nM; in the assay with human glucagon receptor, above 9950 nM; with human GIP receptor it was 0.258 nM.

B9: Example 32 (peptide)
peptide: B1 peptide with X25K, K31P
modifications: Aib2, αMeF(2F)6, 4Pal10, αMeL13, Orn16, Aib20, D-Glu24, K17 and K25: K(AEEA2-(γ-Glu)-CO-(CH2)14-CH3), C-terminal NH2
Turning to B9, the “EC50, cAMP” value is 0.0063 nM in the assay with human GLP-1 receptor, above 9950 nM in the assay with human glucagon receptor and 0.002 nM with human GIP receptor. For the same molecule, in the assay with human GLP-1 receptor, the “Emax, cAMP” value was determined as 119%.

B10: Example 41 (peptide)
peptide: B1 peptide
modifications: Aib2, αMeF(2F)6, 4Pal10, αMeL13, Orn16, Aib20, D-Glu24, αMeY25, K17 and K31: K((γ-Glu)-AEEA2-CO-(CH2)12-CO2H), C-terminal NH2
As to B10, the “EC50, cAMP” value is 0.691 nM with human GLP-1 receptor, above 9950 nM with human glucagon receptor and 0.0108 nM with human GIP receptor.

B11: Example 37 (peptide)
peptide: B1 peptide
modifications: Aib2, αMeF(2F)6, 4Pal10, αMeL13, Orn16, Aib20, D-Glu24, αMeY25, K17 and K31: K((εK)-AEEA2-(γ-Glu)-CO-(CH2)12-CO2H), C-terminal NH2
Consider B11, for which the “EC50, cAMP” value with human GLP-1 receptor is 0.909 nM; with human glucagon receptor it was above 9950 nM; with human GIP receptor, 0.0211 nM.

B12: Example 35 (peptide)
peptide: B1 peptide
modifications: Aib2, αMeF(2F)6, 4Pal10, αMeL13, Orn16, Aib20, D-Glu24, αMeY25, K17 and K31: K(AEEA-(εK)-(γ-Glu)-CO-(CH2)12-CO2H), C-terminal NH2
Take B12: the “EC50, cAMP” value is 0.612 nM with human GLP-1 receptor, above 9950 nM with human glucagon receptor and 0.0162 nM with human GIP receptor.

B13: Example 2 (peptide)
peptide: B1 peptide
modifications: Aib2, αMeF(2F)6, 4Pal10, αMeL13, Orn16, Aib20, D-Glu24, αMeY25, K17 and K31: K(AEEA2-(γ-Glu)-(10-(4-carboxyphenoxy)decanoyl)), C-terminal NH2
Turning to B13, the “EC50, cAMP” value is 1.14 nM with human GLP-1 receptor, above 9950 nM in the assay with human glucagon receptor and 0.0154 nM in the assay with human GIP receptor.

B14: Example 36 (peptide)
peptide: B1 peptide
modifications: Aib2, αMeF(2F)6, 4Pal10, αMeL13, Orn16, Aib20, D-Glu24, αMeY25, K17 and K31: K((εK)-AEEA-(γ-Glu)-CO-(CH2)12-CO2H), C-terminal NH2
Regarding B14, the “EC50, cAMP” value was 0.536 nM with human GLP-1 receptor, above 9950 nM in the assay with human glucagon receptor and 0.0185 nM with human GIP receptor.

The values above are taken from US20230265151A1, “GIP/GLP1 CO-AGONIST COMPOUNDS” (priority 2020, published 2023).
